These results are taken from paper PMC11746154.

B1: Gal4AD-Spo11 [S. cerevisiae] / LexA-Rec102 [S. cerevisiae] (parent)
chain 1: MALEGLRKKYKTRQELVKALTPKRRSIHLNSNGHSNGTPCSNADVLAHIKHFLSLAANSLEQHQQPISIVFQNKKKKGDTSSPDIHTTLDFPLNGPHLCTHQFKLKRCAILLNLLKVVMEKLPLGKNTTVRDIFYSNVELFQRQANVVQWLDVIRFNFKLSPRKSLNIIPAQKGLVYSPFPIDIYDNILTCENEPKMQKQTIFPGKPCLIPFFQDDAVIKLGTTSMCNIVIVEKEAVFTKLVNNYHKLSTNTMLITGKGFPDFLTRLFLKKLEQYCSKLISDCSIFTDADPYGISIALNYTHSNERNAYICTMANYKGIRITQVLAQNNEVHNKSIQLLSLNQRDYSLAKNLIASLTANSWDIATSPLKNVIIECQREIFFQKKAEMNEIDARIFEYK
chain 2: MARDITFLTVFLESCGAVNNDEAGKLLSAWTSTVRIEGPESTDSNSLYIPLLPPGMLKIKLNFKMNDRLVTEEQELFTKLREIVGSSIRFWEEQLFYQVQDVSTIENHVILSLKCTILTDAQISTFISKPRELHTHAKGYPEIYYLSELSTTVNFFSKEGNYVEISQVIPHFNEYFSSLIVSQLEFEYPMVFSMISRLRLKWQQSSLAPISYALTSNSVLLPIMLNMIAQDKSSTTAYQILCRRRGPPIQNFQIFSLPAVTYNK

Variants of B1 are the subject of one assay. As to the kind of experiment: Y2H quantitative β-galactosidase assay. The settings on record: with LexA-Rec102 [S. cerevisiae]; parent: 1; read off a plot.
Consider chain 1 L112A, for which the response (normalized β-gal units) turned out to be 0.03. Same read-out and setting: the result for chain 1 L16A reads 0.3; that for chain 1 L93A, 0.15. For the variant chain 1 Q102A, the response (normalized β-gal units) was found to be 1.2. Same read-out and setting: the same measure for chain 1 L3A: 0.27; for chain 1 L105A: 0.05; for chain 1 L20A: 0.35. The same measure, in the same setting: the result for chain 1 G95A reads 0.17; that for chain 1 N94A, 0.07. As for chain 1 V17A, the response (normalized β-gal units) is 0.5. Still for that read-out and setting: the same measure for chain 1 F103A: 0.35; for chain 1 L60A: 0.62; for chain 1 F91A: 0.3.

Staying with this assay, now noted: with Gal4AD-Spo11 [S. cerevisiae]; parent: 1; read off a plot.
Consider chain 2 Q239A, for which the response (normalized β-gal units) worked out at 0.27. The same measure, in the same setting: the result for chain 2 L207A reads 2; that for chain 2 S233A, 0.12. Still for that read-out and setting: the same measure for chain 2 R199A: 0.02; for chain 2 W202A: 0.1.
